{
  "source": "paper doi:10.1101/2025.09.04.674340",
  "binders": {"B1": {"name": "Ab1983 Fab (Fab, V domains shown)", "VH": "QLQLQESGPGLVKPSETLSLTCAVSGGSISSDYYYWSWIRQPPGKGLEWIGGIYSISESTNYNPSLKSRVTISKDTSKNQFSLKLSSVTAADTAVYFCARKDPYSSGWTPDYWGQGVLVTVSS", "VL": "QSVLTQPSSASASLGASVTLTCTLSSGYSNYAVDWHQQRPGKGPQFVMRVGTGGIVGSKGDGIPDRFSGSGSGLNRYLTIKNIQEEDESDYHCGADHGTGSSFVWVFGGGTRLTVL"}, "B2": {"name": "Ab1999 Fab (Fab, V domains shown)", "VH": "QVQLQESGPGLVKPSETLSLTCAVSGGSISDDYSWSWIRQPPGKGLEWIGYIYGSGGGTNYNPSLKNRVTISIDTSKNQFSLKLSSVTAADTAVYYCARIFAFITVFGVVTPEDNWFDVWGPGVLVTVSS", "VL": "DIQMTQSPSSLSASVGDRVTITCRASQSINNYLHWYQQRAGEAPKLLIYAASALQTGVPSRFSGSGSGTDFTLTISSLQPEDVATYYCQHSYGTPYSFGQGTKVEIK"}},
  "key": {"[1]": {"molecular_target": "WIN332 Env SOSIP trimer (HIV-1 strain BG505)", "assay": "cryo-EM structure"}, "[2]": {"molecular_target": "RC1 Env SOSIP trimer (HIV-1 strain BG505)", "assay": "cryo-EM structure"}},
  "data": [
    {"binder": "B1", "values": [
      {"measurement": "stoichiometry N (Fab per Env trimer)", "setting": "[1]", "result": 2}
    ]},
    {"binder": "B2", "values": [
      {"measurement": "stoichiometry N (Fab per Env trimer)", "setting": "[2]", "result": 1}
    ]}
  ]
}
